This is an account of results in article PMC6345845, “Phosphatidylinositol 4-kinase IIIβ (PI4KB) forms highly flexible heterocomplexes that include ACBD3, 14-3-3, and Rab11 proteins” (Scientific Reports, 2019).

One data set deals with T1, pseudo-wt PI4KB (human, UniProt Q9UBF8 1-816, internal deletion of a disordered loop (residues 423-522)).
T1 construct: phosphatidylinositol 4-kinase IIIβ (PI4KB) with intact N-terminus, containing only the internal deletion (residues 423-522)
Description: SAXS; ACBD3 and pseudo-wt PI4KB mixed 1:1, dialyzed against 20 mM Tris pH 8, 200 mM NaCl, 2 mM TCEP, 1% glycerol; 3.0 and 4.5 mg/ml. As to conditions: both partners purified.

The target of data set [1] is T2, pseudo-wt PI4KB labeled with Atto488 (human, UniProt Q9UBF8 1-816, internal deletion of a disordered loop (residues 423-522), Atto488 (maleimide labelling)).
T2 construct: phosphatidylinositol 4-kinase IIIβ (PI4KB) with intact N-terminus, containing only the internal deletion (residues 423-522); also called Atto488 labeled PI4KB; wild type PI4KB
T2 sequence (Q9UBF8 other isoform, or with tags, fused parts or gaps with the stated changes): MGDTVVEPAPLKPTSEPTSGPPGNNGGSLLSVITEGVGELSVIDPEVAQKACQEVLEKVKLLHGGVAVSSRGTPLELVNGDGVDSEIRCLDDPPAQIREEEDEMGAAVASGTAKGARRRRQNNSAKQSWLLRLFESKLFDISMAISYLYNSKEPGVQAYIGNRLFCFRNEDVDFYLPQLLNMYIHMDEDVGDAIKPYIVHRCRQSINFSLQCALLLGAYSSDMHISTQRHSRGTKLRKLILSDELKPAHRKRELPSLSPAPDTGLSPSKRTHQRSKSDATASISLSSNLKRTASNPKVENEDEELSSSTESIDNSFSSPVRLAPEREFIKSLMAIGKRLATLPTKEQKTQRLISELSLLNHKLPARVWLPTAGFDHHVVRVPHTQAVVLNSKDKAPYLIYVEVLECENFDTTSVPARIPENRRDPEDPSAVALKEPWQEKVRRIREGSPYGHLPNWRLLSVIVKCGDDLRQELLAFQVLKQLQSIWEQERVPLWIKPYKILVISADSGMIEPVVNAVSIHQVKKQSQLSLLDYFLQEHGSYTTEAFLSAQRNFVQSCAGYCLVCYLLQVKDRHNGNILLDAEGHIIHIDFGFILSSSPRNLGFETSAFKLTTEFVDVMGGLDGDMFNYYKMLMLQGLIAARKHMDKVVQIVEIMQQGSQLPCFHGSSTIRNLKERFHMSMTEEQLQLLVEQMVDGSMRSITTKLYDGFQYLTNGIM
The data set can be described thus: GUV recruitment (confocal microscopy); ACBD3 tethered to GUVs with DGS-NTA(Ni); Atto488-PI4KB and mCherry-Rab11 in solution, each approximately 50 nM. As to conditions: both partners purified.

Data set [2] deals with the molecule itself. The data set can be described thus: AUC; sedimentation velocity, SEC buffer, 20 °C, 42 000 rpm; P-PI4KB alone (20 µM) and with Rab11; stoichiometries independent of Rab11 nucleotide state.

T1 sequence (Q9UBF8 other isoform, or with tags, fused parts or gaps with the stated changes): as above

B1: ACBD3 (Acyl-CoA-binding domain-containing protein), tag cleaved (natural protein, UniProt Q9H3P7 1-528, looked up)
chain: MAAVLNAERLEVSVDGLTLSPDPEERPGAEGAPLLPPPLPPPSPPGSGRGPGASGEQPEPGEAAAGGAAEEARRLEQRWGFGLEELYGLALRFFKEKDGKAFHPTYEEKLKLVALHKQVLMGPYNPDTCPEVGFFDVLGNDRRREWAALGNMSKEDAMVEFVKLLNRCCHLFSTYVASHKIEKEEQEKKRKEEEERRRREEEERERLQKEEEKRRREEEERLRREEEERRRIEEERLRLEQQKQQIMAALNSQTAVQFQQYAAQQYPGNYEQQQILIRQLQEQHYQQYMQQLYQVQLAQQQAALQKQQEVVVAGSSLPTSSKVNATVPSNMMSVNGQAKTHTDSSEKELEPEAAEEALENGPKESLPVIAAPSMWTRPQIKDFKEKIQQDADSVITVGRGEVVTVRVPTHEEGSYLFWEFATDNYDIGFGVYFEWTDSPNTAVSVHVSESSDDDEEEEENIGCEEKAKKNANKPLLDEIVPVYRRDCHEEVYAGSHQYPGRGVYLLKFDNSYSLWRSKSVYYRVYYTR
notes: ACBD3 with ACBD, CAR, Q and GOLD domains; no limits of the construct are printed; not shown: His6-GB1, N-terminal, cleaved
As to B1, the binding result with pseudo-wt PI4KB is reported as “binds”.

B2: ACBD3 with N-terminal 6xHis-GB1 tag (for GUV reconstitution) (natural protein, UniProt Q9H3P7 1-528, looked up)
chain: MAAVLNAERLEVSVDGLTLSPDPEERPGAEGAPLLPPPLPPPSPPGSGRGPGASGEQPEPGEAAAGGAAEEARRLEQRWGFGLEELYGLALRFFKEKDGKAFHPTYEEKLKLVALHKQVLMGPYNPDTCPEVGFFDVLGNDRRREWAALGNMSKEDAMVEFVKLLNRCCHLFSTYVASHKIEKEEQEKKRKEEEERRRREEEERERLQKEEEKRRREEEERLRREEEERRRIEEERLRLEQQKQQIMAALNSQTAVQFQQYAAQQYPGNYEQQQILIRQLQEQHYQQYMQQLYQVQLAQQQAALQKQQEVVVAGSSLPTSSKVNATVPSNMMSVNGQAKTHTDSSEKELEPEAAEEALENGPKESLPVIAAPSMWTRPQIKDFKEKIQQDADSVITVGRGEVVTVRVPTHEEGSYLFWEFATDNYDIGFGVYFEWTDSPNTAVSVHVSESSDDDEEEEENIGCEEKAKKNANKPLLDEIVPVYRRDCHEEVYAGSHQYPGRGVYLLKFDNSYSLWRSKSVYYRVYYTR
notes: ACBD3 with ACBD, CAR, Q and GOLD domains; Tethered to GUVs that contain DGS-NTA(Ni); also called membrane tethered ACBD3; not shown: His6-GB1, N-terminal, kept
As for B2, the binding result in data set [1] is listed as “binds”.

B3: phosphorylated PI4KB (residues 128-799, internal deletion 423-522, T292R, phosphorylated at S294 by PKA) (enzyme, human, UniProt Q9UBF8 128-799, looked up)
chain: SWLLRLFESKLFDISMAISYLYNSKEPGVQAYIGNRLFCFRNEDVDFYLPQLLNMYIHMDEDVGDAIKPYIVHRCRQSINFSLQCALLLGAYSSDMHISTQRHSRGTKLRKLILSDELKPAHRKRELPSLSPAPDTGLSPSKRTHQRSKSDATASISLSSNLKRRASNPKVENEDEELSSSTESIDNSFSSPVRLAPEREFIKSLMAIGKRLATLPTKEQKTQRLISELSLLNHKLPARVWLPTAGFDHHVVRVPHTQAVVLNSKDKAPYLIYVEVLECENFDTTSVPARIPENRRDPEDPSAVALKEPWQEKVRRIREGSPYGHLPNWRLLSVIVKCGDDLRQELLAFQVLKQLQSIWEQERVPLWIKPYKILVISADSGMIEPVVNAVSIHQVKKQSQLSLLDYFLQEHGSYTTEAFLSAQRNFVQSCAGYCLVCYLLQVKDRHNGNILLDAEGHIIHIDFGFILSSSPRNLGFETSAFKLTTEFVDVMGGLDGDMFNYYKMLMLQGLIAARKHMDKVVQIVEIMQQGSQLPCFHGSSTIRNLKERFHMSMTEEQLQLLVEQMVDGSMRS
modifications: phosphoserine at 294 (in vitro by protein kinase A)
notes: phosphatidylinositol 4-kinase IIIβ (PI4KB), residues 128-799 with internal deletion of a disordered loop (residues 423-522) and T292R; also called P-PI4KB; phosphatidylinositol 4-kinase IIIβ; source: phosphorylated in vitro by PKA; Mono Q, SEC
Broadly, the stoichiometry N is the number of molecules, sites or subunits per partner or assembly. On to B3, for which the “stoichiometry N” value in data set [2] was determined as 2.
